Article PMC2920317, “CHL1 Is a Selective Organizer of the Presynaptic Machinery Chaperoning the SNARE Complex” (PLoS ONE, 2010)

T1: Close homologue of L1 (CHL1) (mouse (endogenous in brain), UniProt P70232 26-1209)
T1 construct: CHL1, cell adhesion molecule of the immunoglobulin superfamily, endogenous in adult mouse brain; also called CALL; source: endogenous, mouse brain lysate; synaptosomes; synaptic vesicles and synaptic plasma membranes
T1 sequence (looked up): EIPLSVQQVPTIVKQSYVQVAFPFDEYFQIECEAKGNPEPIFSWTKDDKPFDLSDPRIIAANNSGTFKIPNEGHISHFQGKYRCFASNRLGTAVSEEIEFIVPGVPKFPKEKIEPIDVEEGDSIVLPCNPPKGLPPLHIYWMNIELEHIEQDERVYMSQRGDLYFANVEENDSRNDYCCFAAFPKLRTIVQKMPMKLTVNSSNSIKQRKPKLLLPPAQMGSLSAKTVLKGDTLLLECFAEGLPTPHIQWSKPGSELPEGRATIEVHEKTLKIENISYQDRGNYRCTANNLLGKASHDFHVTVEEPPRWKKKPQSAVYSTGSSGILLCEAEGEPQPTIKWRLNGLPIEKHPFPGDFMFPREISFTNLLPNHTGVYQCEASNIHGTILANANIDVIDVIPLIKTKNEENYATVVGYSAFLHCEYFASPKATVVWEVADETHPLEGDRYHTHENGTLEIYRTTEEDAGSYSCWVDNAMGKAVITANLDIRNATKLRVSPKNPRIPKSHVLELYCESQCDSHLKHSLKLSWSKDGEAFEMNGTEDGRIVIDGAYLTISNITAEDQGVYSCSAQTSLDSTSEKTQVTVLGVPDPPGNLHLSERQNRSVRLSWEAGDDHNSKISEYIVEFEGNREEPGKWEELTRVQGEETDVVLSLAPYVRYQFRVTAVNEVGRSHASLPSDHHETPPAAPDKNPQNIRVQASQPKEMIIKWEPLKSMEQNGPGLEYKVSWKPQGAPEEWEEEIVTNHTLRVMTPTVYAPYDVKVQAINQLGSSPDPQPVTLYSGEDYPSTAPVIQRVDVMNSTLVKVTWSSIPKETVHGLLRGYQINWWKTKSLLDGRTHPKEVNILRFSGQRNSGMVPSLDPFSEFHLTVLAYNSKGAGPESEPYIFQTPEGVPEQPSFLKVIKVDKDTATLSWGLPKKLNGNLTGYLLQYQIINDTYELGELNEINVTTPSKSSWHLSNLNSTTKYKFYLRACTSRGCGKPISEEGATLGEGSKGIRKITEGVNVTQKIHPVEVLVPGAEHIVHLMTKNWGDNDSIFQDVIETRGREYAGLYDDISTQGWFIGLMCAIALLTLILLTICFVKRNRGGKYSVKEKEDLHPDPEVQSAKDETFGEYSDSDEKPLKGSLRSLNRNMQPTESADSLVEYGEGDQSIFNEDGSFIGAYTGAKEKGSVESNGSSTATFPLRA

B1: small glutamine-rich tetratricopeptide repeat-containing protein, ubiquitous isoform (αSGT) (natural protein, mouse (endogenous in brain), UniProt Q8BJU0 1-315, looked up)
chain: MDNRKRLAYAIIQFLHGQLRHGGLSCDAQESLEVAIQCLETAFGVTLEDSDLALPQTLPEIFEAATSSKQEMPQDPRAPDRTPPSEEDSAEAERLKTEGNEQMKLENFEAAVHLYGKAIELNPANAVYFCNRAAAYSKLGNYVGAVQDCERAIGIDPGYSKAYGRMGLALSSLNKHAEAVAYYKKALELDPDNDTYKSNLKIAELKLREAPSPTGGVGSLDIAGLLNNPHFITMASSLMNSPQLQQLMSGMISGGHNPLGTPGSSPQQSDLASLIQAGQQFAQQMQQQNPEFVEQIRSQVVRSRTPSASHEEQQE
notes: αSGT, endogenous in adult mouse brain; also called alphaSGT; source: endogenous, mouse brain lysate; synaptic vesicles and synaptic plasma membranes
B2: syntaxin1B (natural protein, mouse (endogenous in brain), UniProt P61264 1-288, looked up)
chain: MKDRTQELRSAKDSDDEEEVVHVDRDHFMDEFFEQVEEIRGCIEKLSEDVEQVKKQHSAILAAPNPDEKTKQELEDLTADIKKTANKVRSKLKAIEQSIEQEEGLNRSSADLRIRKTQHSTLSRKFVEVMTEYNATQSKYRDRCKDRIQRQLEITGRTTTNEELEDMLESGKLAIFTDDIKMDSQMTKQALNEIETRHNEIIKLETSIRELHDMFVDMAMLVESQGEMIDRIEYNVEHSVDYVERAVSDTKKAVKYQSKARRKKIMIIICCVVLGVVLASSIGGTLGL
notes: syntaxin1B, SNARE complex protein, endogenous in adult mouse brain; also called synatxin1B; source: endogenous, mouse brain lysate and synaptosomes; immunoprecipitated from synaptosomes and held on beads

Target: T1, Close homologue of L1 (CHL1)
Test: co-IP; CHL1 immunoprecipitated from adult mouse brain lysates (50 mM Tris-HCl pH 7.5, 150 mM NaCl, 1% Nonidet P-40, 1 mM EDTA); protein A/G-agarose; Western blot; mock IP with non-specific Ig as control
Conditions: partners not purified

percent of the total pool co-immunoprecipitated [%]	Binder
46 ± 8.5	B1
15 ± 3.1	B2
